# In US7138249B2, “Screening method” (Takeda Pharmaceutical Company Limited, priority 2000, dated 2006):
# Target: T1, TGR-1-expressing CHO cells (Homo sapiens, UniProt Q9GZQ4, A395T)
# T1 construct: expressed in transfected cells; host or cells: CHO cells
# Assay: Site sensor assay of extracellular acidification rate in TGR-1-expressing CHO cells versus mock CHO cells
# Type: cell-based
# Conditions: exposed to the cells for 7 minutes and 2 seconds; step-wise decreased concentrations; compared with mock CHO cells; 3 cycles before exposure set as 100%
# Protocol: In the site sensor assay, pig Neuromedin U-8 at the concentrations indicated in FIG. 1 was reacted to TGR-1-expressing CHO cells (●) and mock CHO cells (◯) for 7 minutes and 2 seconds. The maximum of acidification rate during the reaction was plotted.
# [10] TGR-1-expressing cells changes extracellular pH (acidification rate) in response to Neuromedin U. By measuring such change with a site sensor device (Molecular Device), the activity of Neuromedin U can be measured. The details of screening method for the compound that alters the binding between Neuromedin U and TGR-1 by measuring the extracellular pH change with the site sensor device are as follows.
# TGR-1-expressing cells are cultivated in a capsule of the site sensor over night. […] After the pH becomes stable, measured is the pH change of the medium caused by refluxing the medium containing Neuromedin U or Neuromedin U and a test compound on the cells. An influence of the compound that alter the binding of Neuromedin U and TGR-1 can be measured by comparing the change of extracellular pH in TGR-1-expressing cells with that by the single administration of Neuromedin U. The compound that inhibits the change of extracellular pH by administrating Neuromedin U can be selected as a candidate substance that is capable of altering the binding property between Neuromedin U and TGR-1. […]
# T1 sequence (Q9GZQ4 whole entry A395T): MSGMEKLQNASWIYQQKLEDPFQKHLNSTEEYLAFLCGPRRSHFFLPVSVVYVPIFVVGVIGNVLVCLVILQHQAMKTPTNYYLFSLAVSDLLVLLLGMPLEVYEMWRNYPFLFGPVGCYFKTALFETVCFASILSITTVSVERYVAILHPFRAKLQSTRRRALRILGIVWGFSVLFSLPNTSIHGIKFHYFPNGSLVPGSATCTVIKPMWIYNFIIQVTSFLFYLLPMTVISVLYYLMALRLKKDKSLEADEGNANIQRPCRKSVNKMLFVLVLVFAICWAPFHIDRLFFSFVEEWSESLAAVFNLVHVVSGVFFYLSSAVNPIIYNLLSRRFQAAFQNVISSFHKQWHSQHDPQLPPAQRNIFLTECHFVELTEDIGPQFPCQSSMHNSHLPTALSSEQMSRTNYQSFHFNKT
substance,measurement,value
"Pig Neuromedin U-8: Pig Neuromedin U-8 peptide of 8 amino acid residues (BACHEM, H-5505, SEQ ID NO:5), ligand of TGR-1","TGR-1 receptor-specific cell-stimulating activity (peak acidification rate, rate of change in extracellular pH)",reacted to Neuromedin U in a specific and does-dependent manner
